According to patent US20220162320A1 (published 2022):
One block for each binder: values may come before it.

Experiments:
[1] = molecular target: T1, HLA-PEPTIDE target G2: HLA-A*01:01_…, recombinant soluble complex (human, enzymatically biotinylated (BirA)); experiment: BLI
[2] = molecular target: T2, CD3 (reagent of the affinity experiments of Example 18) (UniProt P07766 23-126); experiment: BLI
T2 chain: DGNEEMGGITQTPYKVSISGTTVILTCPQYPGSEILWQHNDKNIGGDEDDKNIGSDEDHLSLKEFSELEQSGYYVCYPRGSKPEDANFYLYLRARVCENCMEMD

[3] = molecular target: T1, HLA-PEPTIDE target G2: HLA-A*01:01_…, …; experiment: BLI; apparent KD (bivalent), avid
[4] = molecular target: T2, CD3 (reagent of the affinity …); experiment: BLI; apparent KD (bivalent), avid
[5] = molecular target: T1, HLA-PEPTIDE target G2: HLA-A*01:01_…, …; experiment: BLI; apparent KD (bivalent), avid; remark: listed apart in the source
[6] = molecular target: T1, HLA-PEPTIDE target G2: HLA-A*01:01_…, …; experiment: BLI; remark: listed apart in the source
[7] = molecular target: T2, CD3 (reagent of the affinity …); experiment: BLI
[8] = molecular target: T1, HLA-PEPTIDE target G2: HLA-A*01:01_…, …; experiment: BLI; remark: listed apart in the source
[9] = molecular target: T2, CD3 (reagent of the affinity …); experiment: BLI
[10] = molecular target: T1, HLA-PEPTIDE target G2: HLA-A*01:01_…, …; experiment: BLI; remark: listed apart in the source

B1: 2-G2(1H11)-αCD3 (bispecific antibody)
heavy: not shown
light: QAVVTQEPSLTVSPGGTVTLTCGSSTGAVTTSNYANWVQQKPGKSPRGLIGGTNKRAPGVPARFSGSLLGGKAALTISGAQPEDEADYYCALWYSNHWVFGGGTKLTVLRTVAAPSVFIFPPSDEQLKSGTASVVCLLNNFYPREAKVQWKVDNALQSGNSQESVTEQDSKDSTYSLSSTLTLSKADYEKHKVYACEVTHQGLSSPVTKSFNRGEC
Kd [1]: 82.2 nM
Kd [2]: 6.02 nM
Kd [3]: 3.41 nM
Kd [4]: 0.696 nM

B3: 3-G2(1H11)-hOKT3 (bispecific antibody)
chain: not shown
heavy: QVQLVQSGAEVKKPGASVKVSCKASGYTFTRYTMHWVRQAPGQGLEWMGYINPSRGYTNYNQKFKDRVTLTTDKSSSTAYMELSSLRSEDTAVYYCARYYDDHYSLDYWGQGTLVTVSSASTKGPSVFPLAPSSKSTSGGTAALGCLVKDYFPEPVTVSWNSGALTSGVHTFPAVLQSSGLYSLSSVVTVPSSSLGTQTYICNVNHKPSNTKVDKRVEPKSCDKTHTCPPCPAPELLGGPSVFLFPPKPKDTLMISRTPEVTCVVVDVSHEDPEVKFNWYVDGVEVHNAKTKPREEQYQSTYRVVSVLTVLHQDWLNGKEYKCKVSNKALPAPIEKTISKAKGQPREPQVCTLPPSREEMTKNQVSLSCAVKGFYPSDIAVEWESNGQPENNYKTTPPVLDSDGSFFLVSKLTVDKSRWQQGNVFSCSVMHEALHNRFTQKSLSLSPGK
light: DIQMTQSPSSLSASVGDRVTITCSASSSVSYMNWYQQKPGKAPKRLIYDTSKLASGVPSRFSGSGSGTDFTLTISSLQPEDFATYYCQQWSSNPFTFGQGTKLEIKRTVAAPSVFIFPPSDEQLKSGTASVVCLLNNFYPREAKVQWKVDNALQSGNSQESVTEQDSKDSTYSLSSTLTLSKADYEKHKVYACEVTHQGLSSPVTKSFNRGEC
Kd [8]: 421 nM
Kd [9]: 168 nM

B4: 3-G2(1H11)-OKT3 (bispecific antibody)
chain: not shown
heavy: not shown
light: QIVLTQSPAIMSASPGEKVTMTCSASSSVSYMNWYQQKSGTSPKRWIYDTSKLASGVPAHFRGSGSGTSYSLTISGMEAEDAATYYCQQWSSNPFTFGSGTKLEINRTVAAPSVFIFPPSDEQLKSGTASVVCLLNNFYPREAKVQWKVDNALQSGNSQESVTEQDSKDSTYSLSSTLTLSKADYEKHKVYACEVTHQGLSSPVTKSFNRGEC
Kd [10]: 24.8 nM

Continued, values first:

Kd [5]: 2.95 nM
Kd [6]: 543 nM
Kd [7]: 11.6 nM
B2: 4-G2(1H11)-αCD3 (bispecific antibody)
chain: not shown
heavy: QVQLVQSGAEVKKPGASVKVSCKASGYTFTNYYMHWVRQAPGQGLEWMGMINPSGGGTSYAQKFQGRVTMTRDTSTSTVYMELSSLRSEDTAVYYCARGNPWELRLDYWGQGTLVTVSSGGGGSGGGGSGGGGSGGGGSDIQMTQSPSSLSASVGDRVTITCQASQDISNYLNWYQQKPGKAPKLLIYAASSLQSGVPSRFSGSGSGTDFTLTISSLQPEDFATYYCQQYYSYPFTFGPGTKVDIKGGGGSGGGGSEVQLVESGGGLVQPGGSLRLSCAASGFTFSTYAMNWVRQAPGKGLEWVGRIRSKYNNYATYYADSVKGRFTISRDDSKNTLYLQMNSLRAEDTAVYYCVRHGNFGDSYVSWFAYWGQGTLVTVSSASTKGPSVFPLAPSSKSTSGGTAALGCLVKDYFPEPVTVSWNSGALTSGVHTFPAVLQSSGLYSLSSVVTVPSSSLGTQTYICNVNHKPSNTKVDKRVEPKSCDKTHTCPPCPAPELLGGPSVFLFPPKPKDTLMISRTPEVTCVVVDVSHEDPEVKFNWYVDGVEVHNAKTKPREEQYQSTYRVVSVLTVLHQDWLNGKEYKCKVSNKALPAPIEKTISKAKGQPREPQVCTLPPSREEMTKNQVSLSCAVKGFYPSDIAVEWESNGQPENNYKTTPPVLDSDGSFFLVSKLTVDKSRWQQGNVFSCSVMHEALHNRFTQKSLSLSPGK
light: B1 light

Kd [10]: 23.8 nM
B5: 3-OKT3-G2(1H11) (antibody)
chain 1: not shown
chain 2: not shown
chain 3: MDMRVPAQLLGLLLLWLPGARCQIVLTQSPAIMSASPGEKVTMTCSASSSVSYMNWYQQKSGTSPKRWIYDTSKLASGVPAHFRGSGSGTSYSLTISGMEAEDAATYYCQQWSSNPFTFGSGTKLEINRTVAAPSVFIFPPSDEQLKSGTASVVCLLNNFYPREAKVQWKVDNALQSGNSQESVTEQDSKDSTYSLSSTLTLSKADYEKHKVYACEVTHQGLSSPVTKSFNRGEC
